In publication PMC3427169, “Interaction of Mycobacterium tuberculosis RshA and SigH Is Mediated by Salt Bridges” (PLoS ONE, 2012):

Key:
[1] = target: SigH (Mycobacterium tuberculosis) (UniProt P9WGH8); details: cited from earlier work
[2] = target: T1, Mycobacterium tuberculosis SigH, 6xHis-tagged (pET29a) (Mycobacterium tuberculosis H37Rv, UniProt P9WGH9 1-216); experiment: native gel or EMSA; metal free RshA mixed with SigH at equimolar concentrations (3 µM each in the text, 5 µM each in the legend), 50 mM Tris HCl pH 8.0, 100 mM NaCl, 0.01% Triton X-100, 25°C; native gel pH 8.8 and SDS-PAGE, Coomassie; details: both partners purified
T1 construct: no tag removal is told; also called WT SigH; 6xHis:SigH; not shown: His6, C-terminal, kept
T1 sequence (P9WGH9 whole entry): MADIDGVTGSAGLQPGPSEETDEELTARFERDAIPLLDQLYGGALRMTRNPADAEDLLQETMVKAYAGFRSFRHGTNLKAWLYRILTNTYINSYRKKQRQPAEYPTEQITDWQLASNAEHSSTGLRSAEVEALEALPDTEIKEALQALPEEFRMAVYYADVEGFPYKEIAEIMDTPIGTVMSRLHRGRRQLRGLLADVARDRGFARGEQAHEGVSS

Chain of SigH (Mycobacterium tuberculosis) (P9WGH8 whole entry): as the sequence (P9WGH9 whole entry) above

Molecule | Kd [1] [nM] | binding result [2]
RshA (from UniProt P9WJ68) | 15 | 
Mycobacterium tuberculosis anti-sigma factor RshA, 6xHis-tagged (pET29a) (natural protein, also called WT RshA; 6xHis:RshA; not shown: His6, C-terminal, kept) MSENCGPTDAHADHDDSHGGMGCAEVIAEVWTLLDGECTPETRERLRRHLEACPGCLRHYGLEERIKALIGTKCRGDRAPEGLRERLRLEIRRTTIIRGGP |  | binds
